# Measurements: paper PMC2756145
# Changes are numbered by the printed parent chain.
# T1: Pot1-DBD_S123A (Schizosaccharomyces pombe, UniProt O13988 1-389, S123A)
# T1 sequence: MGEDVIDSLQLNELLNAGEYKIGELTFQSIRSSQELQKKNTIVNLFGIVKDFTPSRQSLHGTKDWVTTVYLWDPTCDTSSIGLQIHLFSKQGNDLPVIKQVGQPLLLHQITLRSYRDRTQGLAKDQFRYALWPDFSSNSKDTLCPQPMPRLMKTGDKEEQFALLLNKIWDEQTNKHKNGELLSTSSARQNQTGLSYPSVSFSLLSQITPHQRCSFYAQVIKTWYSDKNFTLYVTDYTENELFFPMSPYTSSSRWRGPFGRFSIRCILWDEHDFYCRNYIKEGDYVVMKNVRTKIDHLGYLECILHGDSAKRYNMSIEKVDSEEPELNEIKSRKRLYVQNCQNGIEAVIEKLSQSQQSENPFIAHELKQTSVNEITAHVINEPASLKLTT
# T2: Pot1-DBD_Q91A (Schizosaccharomyces pombe, UniProt O13988 1-389, Q91A)
# T2 sequence: T1 sequence with Q91A, A123S
# T3: Pot1-DBD_Y115A (Schizosaccharomyces pombe, UniProt O13988 1-389, Y115A)
# T3 sequence: T1 sequence with Y115A, A123S
# Assays:
# Test in all cases: filter binding
# Pot1-DBD_S123A = molecular target: T1, Pot1-DBD_S123A
# Pot1-DBD_Q91A = molecular target: T2, Pot1-DBD_Q91A
# Pot1-DBD_Y115A = molecular target: T3, Pot1-DBD_Y115A
binder,measurement,setting,value
GGTTACGGTTAC (ssDNA) [12mer],Kd,Pot1-DBD_S123A,30 ± 2 nM
same,Kd,Pot1-DBD_Q91A,7 ± 0.6 nM
same,Kd,Pot1-DBD_Y115A,80 ± 4 nM
